The values that follow come from US20150098945A1 (Daiichi Sankyo, published 2015).

Assay in all cases: flow cytometry on transfected HEK293 cells
Experiment [1] concerns the target N-terminal FLAG-tagged human ROBO1 (pCI-FLAG-hROBO1-transfected HEK293 cells) (human, UniProt Q9Y6N7 58-1651).
The target in experiment [2] is T1, human ROBO3 (pCI-hROBO3-transfected HEK293 cells) (human, UniProt Q96MS0 21-1386).
T1 sequence: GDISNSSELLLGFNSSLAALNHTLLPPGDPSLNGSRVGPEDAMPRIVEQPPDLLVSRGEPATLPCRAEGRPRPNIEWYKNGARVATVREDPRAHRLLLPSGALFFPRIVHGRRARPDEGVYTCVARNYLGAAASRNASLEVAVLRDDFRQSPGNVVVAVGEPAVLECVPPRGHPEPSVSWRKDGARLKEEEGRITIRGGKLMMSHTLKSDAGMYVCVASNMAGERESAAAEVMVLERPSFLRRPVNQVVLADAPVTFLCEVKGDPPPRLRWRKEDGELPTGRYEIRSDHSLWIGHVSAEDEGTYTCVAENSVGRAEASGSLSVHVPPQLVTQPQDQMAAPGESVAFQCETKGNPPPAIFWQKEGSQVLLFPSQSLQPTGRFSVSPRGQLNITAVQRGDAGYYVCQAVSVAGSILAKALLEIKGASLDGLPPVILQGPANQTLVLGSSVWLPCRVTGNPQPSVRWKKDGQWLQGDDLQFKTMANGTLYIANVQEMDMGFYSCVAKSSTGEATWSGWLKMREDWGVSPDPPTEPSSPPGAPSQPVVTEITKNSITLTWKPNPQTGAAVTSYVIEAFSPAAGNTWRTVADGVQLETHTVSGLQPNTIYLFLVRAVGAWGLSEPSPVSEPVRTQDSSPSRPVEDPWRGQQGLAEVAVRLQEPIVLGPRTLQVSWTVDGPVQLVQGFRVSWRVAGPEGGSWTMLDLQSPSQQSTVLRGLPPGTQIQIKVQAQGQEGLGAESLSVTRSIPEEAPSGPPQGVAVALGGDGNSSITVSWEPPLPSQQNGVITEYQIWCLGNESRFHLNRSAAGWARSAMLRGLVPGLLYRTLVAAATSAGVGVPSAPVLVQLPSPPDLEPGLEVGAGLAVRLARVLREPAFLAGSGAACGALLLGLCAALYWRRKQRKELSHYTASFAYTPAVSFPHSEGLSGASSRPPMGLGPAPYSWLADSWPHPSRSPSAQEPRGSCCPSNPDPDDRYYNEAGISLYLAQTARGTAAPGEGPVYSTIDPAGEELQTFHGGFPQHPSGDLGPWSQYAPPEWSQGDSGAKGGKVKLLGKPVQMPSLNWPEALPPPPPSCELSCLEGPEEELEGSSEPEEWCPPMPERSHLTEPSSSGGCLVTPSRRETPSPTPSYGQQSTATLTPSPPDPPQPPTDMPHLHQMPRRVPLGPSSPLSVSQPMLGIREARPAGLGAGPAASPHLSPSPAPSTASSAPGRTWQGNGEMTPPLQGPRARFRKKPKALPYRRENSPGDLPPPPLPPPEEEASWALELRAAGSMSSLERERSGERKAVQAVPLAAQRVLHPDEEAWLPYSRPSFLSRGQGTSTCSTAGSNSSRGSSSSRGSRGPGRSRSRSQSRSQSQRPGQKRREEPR

Experiment [3] concerns the target T2, mouse ROBO4 (pCI-mROBO4-transfected HEK293 cells) (mouse, UniProt Q8C310 28-1012).
T2 sequence: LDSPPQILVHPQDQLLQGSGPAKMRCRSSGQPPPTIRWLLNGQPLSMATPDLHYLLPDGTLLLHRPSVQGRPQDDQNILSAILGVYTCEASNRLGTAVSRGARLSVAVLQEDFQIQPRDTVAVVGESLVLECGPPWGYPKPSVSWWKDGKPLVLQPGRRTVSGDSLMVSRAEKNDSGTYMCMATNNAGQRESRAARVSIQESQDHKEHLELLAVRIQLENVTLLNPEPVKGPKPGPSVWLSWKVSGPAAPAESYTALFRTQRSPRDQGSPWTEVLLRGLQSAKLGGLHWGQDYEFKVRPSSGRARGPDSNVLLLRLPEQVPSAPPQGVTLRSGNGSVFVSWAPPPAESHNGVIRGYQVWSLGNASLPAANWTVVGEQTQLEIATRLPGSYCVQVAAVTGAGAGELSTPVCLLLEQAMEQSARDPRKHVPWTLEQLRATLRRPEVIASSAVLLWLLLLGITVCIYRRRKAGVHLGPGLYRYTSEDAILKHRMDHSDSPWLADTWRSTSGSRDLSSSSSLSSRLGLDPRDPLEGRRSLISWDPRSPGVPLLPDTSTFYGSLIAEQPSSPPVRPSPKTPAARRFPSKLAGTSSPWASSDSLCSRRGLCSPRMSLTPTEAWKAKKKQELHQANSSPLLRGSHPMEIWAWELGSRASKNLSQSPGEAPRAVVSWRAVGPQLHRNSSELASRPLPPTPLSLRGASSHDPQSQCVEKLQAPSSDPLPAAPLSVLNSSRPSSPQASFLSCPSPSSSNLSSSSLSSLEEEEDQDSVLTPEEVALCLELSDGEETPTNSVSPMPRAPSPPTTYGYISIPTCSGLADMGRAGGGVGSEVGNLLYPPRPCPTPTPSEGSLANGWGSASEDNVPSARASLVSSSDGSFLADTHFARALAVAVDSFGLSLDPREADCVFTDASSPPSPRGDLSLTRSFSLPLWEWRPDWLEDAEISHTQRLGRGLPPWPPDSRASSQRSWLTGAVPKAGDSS

Sequence of N-terminal FLAG-tagged human ROBO1 (pCI-FLAG-hROBO1-transfected HEK293 cells) (Q9Y6N7 other isoform, or with tags, fused parts or gaps): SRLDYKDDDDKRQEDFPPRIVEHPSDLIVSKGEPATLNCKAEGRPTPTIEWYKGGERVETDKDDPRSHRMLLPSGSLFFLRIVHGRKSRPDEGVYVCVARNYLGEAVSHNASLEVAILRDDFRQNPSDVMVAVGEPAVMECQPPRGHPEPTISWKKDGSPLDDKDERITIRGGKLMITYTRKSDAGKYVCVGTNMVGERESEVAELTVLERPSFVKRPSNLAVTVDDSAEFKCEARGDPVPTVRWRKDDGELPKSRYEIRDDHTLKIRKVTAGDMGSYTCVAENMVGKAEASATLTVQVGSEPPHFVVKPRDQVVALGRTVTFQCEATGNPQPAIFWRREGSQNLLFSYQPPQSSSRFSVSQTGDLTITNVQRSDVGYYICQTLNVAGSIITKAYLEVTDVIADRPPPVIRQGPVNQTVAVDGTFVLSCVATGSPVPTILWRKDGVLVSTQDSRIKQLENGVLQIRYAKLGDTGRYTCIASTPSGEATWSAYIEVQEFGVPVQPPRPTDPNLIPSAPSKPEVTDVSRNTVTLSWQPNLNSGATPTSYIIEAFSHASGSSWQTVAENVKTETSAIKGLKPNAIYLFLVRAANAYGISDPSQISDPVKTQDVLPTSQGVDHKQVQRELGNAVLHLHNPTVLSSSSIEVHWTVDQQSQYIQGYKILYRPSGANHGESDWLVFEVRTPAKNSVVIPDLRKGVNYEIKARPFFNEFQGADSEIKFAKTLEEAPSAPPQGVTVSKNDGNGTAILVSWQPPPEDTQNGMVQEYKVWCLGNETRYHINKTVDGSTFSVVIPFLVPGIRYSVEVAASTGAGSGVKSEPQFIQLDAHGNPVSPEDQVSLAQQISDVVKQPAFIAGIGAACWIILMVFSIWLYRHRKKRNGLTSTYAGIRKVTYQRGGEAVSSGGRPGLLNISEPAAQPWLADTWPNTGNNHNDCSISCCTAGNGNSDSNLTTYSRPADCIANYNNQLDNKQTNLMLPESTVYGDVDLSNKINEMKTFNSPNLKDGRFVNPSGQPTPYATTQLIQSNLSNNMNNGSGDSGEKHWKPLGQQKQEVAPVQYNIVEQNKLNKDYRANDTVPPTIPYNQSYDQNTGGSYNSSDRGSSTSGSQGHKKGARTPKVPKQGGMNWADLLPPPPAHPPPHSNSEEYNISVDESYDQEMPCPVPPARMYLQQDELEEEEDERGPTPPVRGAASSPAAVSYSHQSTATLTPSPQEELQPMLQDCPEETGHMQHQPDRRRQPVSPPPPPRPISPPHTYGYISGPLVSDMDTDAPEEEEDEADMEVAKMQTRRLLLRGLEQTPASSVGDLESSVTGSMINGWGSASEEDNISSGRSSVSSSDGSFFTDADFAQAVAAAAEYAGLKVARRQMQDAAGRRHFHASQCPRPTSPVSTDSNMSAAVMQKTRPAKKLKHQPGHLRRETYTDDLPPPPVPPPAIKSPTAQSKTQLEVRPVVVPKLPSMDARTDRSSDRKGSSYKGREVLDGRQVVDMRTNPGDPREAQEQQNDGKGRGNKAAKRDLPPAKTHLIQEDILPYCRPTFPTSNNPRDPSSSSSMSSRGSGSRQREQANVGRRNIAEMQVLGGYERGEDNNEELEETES

B1: humanized MAb1 antibody H-1140 (antibody, human IgG2, kappa, V domains shown)
VH: EVQLVESGGGLVQPGGSLRLSCAASGFTFSTYAMSWVRQAPGKGLEWVATISQGGTYTYYPDSVKGRFTISRDNAKNTLYLQMNSLRAEDTAVYYCARLIYYDYLDYWGQGTLVTVSS
VL: DIVMTQSPLSLPVTLGEPASISCRSSQSLENSNGNTYLNWYLQKPGQSPQLLIYRVSNRFSGVPDRFSGSGSGTDFTLKISRVEAEDVGVYYCLQVTHVPWTFGPGTKVDIKR
notes: Human IgG2 / kappa constant regions; also called hMAb1-H2-type heavy chain + hMAb1-L1-type light chain
Regarding B1, the figures for the binding result in experiment [1], in experiment [2] and in experiment [3] were “no binding (tested: 10 µg/mL (method of 4)-4-2))”, “no binding (tested: 10 µg/mL (method of 4)-4-2))” and “no binding (tested: 10 µg/mL (method of 4)-3-2))”, respectively.
